Reference: US20130236462A1 (Sanofi, published 2013)
Positions count from the first letter of the chain named. Names may count otherwise. Read-outs that look alike come from different tables or passages of the source. Values belong to the molecule of their own block, whether it stands above or below them.

Columns and labels:
recombinant human IL-13 [1] = biological target: T1, recombinant human IL-13 (human, UniProt P35225 35-146, limits assumed); experiment: cell-based or functional assay
recombinant human IL-13 [2] = biological target: T1, recombinant human IL-13; experiment: SPR Biacore 3000, antibody captured, cytokine in solution
Source text: (§1) Surface plasmon resonance technology on a Biacore 3000 (GE Healthcare) was used for detailed kinetic characterisation of purified anibodics. A capture assay using a species specific antibody (e.g. human-Fc specific MAB 1302, Chemicon) for capture and orientation of the investigated antibodies was used. The capture antibody was immobilized via primary amine groups (10000 RU) on a research grade CM5 chip (GE Life Sciences) using standard procedures. The analysed antibody was captured with an adjusted RU value that would result in maximal analyte binding of 30 RU at a flow rate of 10 μl/min. Binding kinetics were measured against recombinant human IL-4 and IL-13 over a concentration range between 0 to 50 nM in HBS EP (10 mM HEPES pH 7.4, 150 mM NaCl, 3 mM EDTA, 0.005% Surfactant P20) at a flow rate of 30 μl/min. Chip surfaces were regenerated with 10 mM glycine pH2.5. Kinetic parameters were analysed and calculated in the BIAevaluation program package using a flow cell without captured antibody as reference. To investigate additive binding of both antigens, a wizard-driven co-inject method has been applied in which one antigen was injected immediately followed by the antigen mix of IL-13/IL-4.

recombinant human IL-13 [3] = biological target: T1, recombinant human IL-13; experiment: SPR Biacore 3000, ratio of KD
Source text: as §1

recombinant human IL-4 [4] = biological target: T2, recombinant human IL-4 (human, UniProt P05112 25-153); experiment: SPR Biacore 3000, ratio of KD
T2 construct: Bought reagent
T2 sequence (looked up): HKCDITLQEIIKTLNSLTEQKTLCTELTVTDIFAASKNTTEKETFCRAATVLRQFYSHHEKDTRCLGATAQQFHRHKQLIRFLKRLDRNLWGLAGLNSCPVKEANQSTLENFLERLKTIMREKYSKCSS
Source text: as §1

recombinant human IL-4 [5] = biological target: T2, recombinant human IL-4; experiment: cell-based or functional assay
recombinant human IL-4 [6] = biological target: T2, recombinant human IL-4; experiment: SPR Biacore 3000, antibody captured, cytokine in solution
Source text: as §1

[7] = biological target: human IL-13 R112Q variant (human) (UniProt P35225); experiment: as above
recombinant human IL-4 [8] = biological target: T2, recombinant human IL-4; experiment: as above; remark: listed apart in the source
Source text: as §1
Binding and neutralization activity assays were performed as described in the previous Examples.

recombinant human IL-4 [9] = biological target: T2, recombinant human IL-4; experiment: cell-based or functional assay; remark: listed apart in the source

human IL-13 R112Q variant (human), sequence (P35225 33-146, stated change not applied): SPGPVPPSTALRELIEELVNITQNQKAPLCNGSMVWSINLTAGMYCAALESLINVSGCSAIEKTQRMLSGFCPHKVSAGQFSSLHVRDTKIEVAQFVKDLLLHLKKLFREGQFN
T1 sequence (P35225 35-146 limits assumed): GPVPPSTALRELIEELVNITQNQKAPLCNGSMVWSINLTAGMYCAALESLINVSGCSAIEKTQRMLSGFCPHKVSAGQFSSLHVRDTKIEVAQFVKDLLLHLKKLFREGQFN

Molecule: chimeric anti-IL-13 clone B-B13 monoclonal antibody
IC50, inhibition of IL-13 induced TF-1 cell proliferation (recombinant human IL-13 [1]): 7.4 nM | Kd (recombinant human IL-13 [2]): 0.261 nM | koff (recombinant human IL-13 [2]): 0.000461 s⁻¹ | kon (recombinant human IL-13 [2]): 1.76e+06 M⁻¹ s⁻¹

B1: huB-B13 VL2 × VH2 (antibody, V domains shown)
VH: EVQLKESGPGLVAPGGSLSITCTVSGFSLTDSSINWVRQPPGKGLEWLGMIWGDGRIDYADALKSRLSISKDSSKSQVFLEMTSLRTDDTATYYCARDGYFPYAMDFWGQGTSVTVSS
VL: DIVLTQSPASLAVSLGQRATISCRASESVDSYGNSYMHWYQQKAGQPPKLLIYLASNLESGVPARFSGSGSRTDFTLTIDPVQAEDAATYYCQQNNEDSRTFGGGTKLEIK
notes: Expressed as a whole antibody, purified on Protein A; also called humanized B-B13 VL2xVH2
Kd (recombinant human IL-13 [2]): 0.157 nM | koff (recombinant human IL-13 [2]): 0.000177 s⁻¹ | kon (recombinant human IL-13 [2]): 1.13e+06 M⁻¹ s⁻¹

B2: huB-B13 VL3 × VH2 (antibody, V domains shown)
VH: B1 VH
VL: B1 VL with N34Q, N96A
notes: Expressed as a whole antibody, purified on Protein A; also called huB-B13 VL3xVH2; humanized B-B13 VL3xVH2
IC50, inhibition of IL-13 induced TF-1 cell proliferation (recombinant human IL-13 [1]): 3.2 nM | fold higher affinity than chimeric B-B13 (recombinant human IL-13 [3]): 6 fold | fold higher affinity than the original murine B-B13 (recombinant human IL-13 [3]): 13 fold | Kd (recombinant human IL-13 [2]): 0.0439 nM | koff (recombinant human IL-13 [2]): 0.000112 s⁻¹ | kon (recombinant human IL-13 [2]): 2.55e+06 M⁻¹ s⁻¹

B3: huB-B13 VL3 × VH3 (antibody, V domains shown)
VH: B1 VH with Y100R, D106K
VL: B1 VL with N34Q, N96A
notes: Expressed as a whole antibody, purified on Protein A; also called humanized B-B13 VL3xVH3
Kd (recombinant human IL-13 [2]): 0.189 nM | koff (recombinant human IL-13 [2]): 0.000405 s⁻¹ | kon (recombinant human IL-13 [2]): 2.14e+06 M⁻¹ s⁻¹

B4: huB-B13 VL1 × VH1 (antibody, V domains shown)
VH: B1 VH with A60N, S73N, T83N
VL: B1 VL with S99P
notes: Expressed as a whole antibody, purified on Protein A; also called humanized B-B13 VL1xVH1
IC50, inhibition of IL-13 induced TF-1 cell proliferation (recombinant human IL-13 [1]): 15.7 nM | Kd (recombinant human IL-13 [2]): 0.396 nM | koff (recombinant human IL-13 [2]): 0.000691 s⁻¹ | kon (recombinant human IL-13 [2]): 1.74e+06 M⁻¹ s⁻¹

B5: huB-B13 VL3 × VH1 (antibody, V domains shown)
VH: B1 VH with A60N, S73N, T83N
VL: B1 VL with N34Q, N96A
notes: Expressed as a whole antibody, purified on Protein A; also called humanized B-B13 VL3xVH1
IC50, inhibition of IL-13 induced TF-1 cell proliferation (recombinant human IL-13 [1]): 5.2 nM | Kd (recombinant human IL-13 [2]): 0.172 nM | koff (recombinant human IL-13 [2]): 0.000333 s⁻¹ | kon (recombinant human IL-13 [2]): 1.93e+06 M⁻¹ s⁻¹

B6: huB-B13 VL1 × VH3 (antibody, V domains shown)
VH: B1 VH with Y100R, D106K
VL: B1 VL with S99P
notes: Expressed as a whole antibody, purified on Protein A; also called humanized B-B13 VL1xVH3
Kd (recombinant human IL-13 [2]): 0.205 nM | koff (recombinant human IL-13 [2]): 0.000395 s⁻¹ | kon (recombinant human IL-13 [2]): 1.93e+06 M⁻¹ s⁻¹

B7: Hu8D4-8 VL1 × VH1 (antibody, V domains shown)
VH: QVQLQQSGPELVKPGASVKISCKASGYSFTSYWIHWIKQRPGQGLEWIGMIDPSDGETRLNQRFQGRATLTVDESTSTAYMQLRSPTSEDSAVYYCTRLKEYGNYDSFYFDVWGAGTLVTVSS
VL: DIQMTQSPASLSVSVGDTITLTCHASQNIDVWLSWFQQKPGNIPKLLIYKASNLHTGVPSRFSGSGSGTGFTLTISSLQPEDIATYYCQQAHSYPFTFGGGTKLEIKR
notes: Expressed as a whole antibody, purified on Protein A; also called hu8D4-8 VL1xVH1; humanized 8D4-8 VL1xVH1
fold higher affinity than chimeric 8D4-8 (recombinant human IL-4 [4]): 2 fold | fold higher affinity than the original murine 8D4-8 (recombinant human IL-4 [4]): 11 fold | IC50, inhibition of IL-4 induced TF-1 cell proliferation (recombinant human IL-4 [5]): 41 pM | Kd (recombinant human IL-4 [6]): 0.00329 nM | koff (recombinant human IL-4 [6]): 0.000155 s⁻¹ | kon (recombinant human IL-4 [6]): 4.72e+07 M⁻¹ s⁻¹

B8: chimeric anti-IL-4 clone 8D4-8 monoclonal antibody (antibody, V domains shown)
VH: B7 VH with E10Q, K13R, A16T, Q65K, G66D, E74R, T76S, V93L, L118T
VL: DIQMNQSPASLSVSLGDTITLTCHASQNIDVWLSWFQQSPGNIPKLLIYKASNLHTGVPSRFSGSGSGTGFTLTISSLQPEDIATYYCQQAHSYPFTFGGGTKLEIK
notes: Murine variable domains fused to IGHG1 and IGKC; also called ch8D4-8 WT; chimeric 8D4-8
IC50, inhibition of IL-4 induced TF-1 cell proliferation (recombinant human IL-4 [5]): 84 pM | Kd (recombinant human IL-4 [6]): 0.00783 nM | koff (recombinant human IL-4 [6]): 0.000195 s⁻¹ | kon (recombinant human IL-4 [6]): 2.49e+07 M⁻¹ s⁻¹

B9: Hu8D4-8 VL1 × VH2 (antibody, V domains shown)
VH: B7 VH with P53A
VL: B7 VL
notes: Expressed as a whole antibody, purified on Protein A; also called humanized 8D4-8 VL1xVH2
IC50, inhibition of IL-4 induced TF-1 cell proliferation (recombinant human IL-4 [5]): 135 pM | Kd (recombinant human IL-4 [6]): 0.0139 nM | koff (recombinant human IL-4 [6]): 0.000348 s⁻¹ | kon (recombinant human IL-4 [6]): 2.57e+07 M⁻¹ s⁻¹

B11: huTBTI3_1_1 (bispecific antibody, IgG4)
VH: EVQLKESGPGLVAPGGSLSITCTVSGFSLTDSSINWVRQPPGKGLEWLGMIWGDGRIDYADALKSRLSISKDSSKSQVFLEMTSLRTDDTATYYCARDGYFPYAMDFWGQGTSVTVSSGGGGSGGGGSQVQLQQSGPELVKPGASVKISCKASGYSFTSYWIHWIKQRPGQGLEWIGMIDASDGETRLNQRFQGRATLTVDESTSTAYMQLRSPTSEDSAVYYCTRLKEYGNYDSFYFDVWGAGTLVTVSS
VL: DIVLTQSPASLAVSLGQRATISCRASESVDSYGQSYMHWYQQKAGQPPKLLIYLASNLESGVPARFSGSGSRTDFTLTIDPVQAEDAATYYCQQNAEDSRTFGGGTKLEIKGGGGSGGGGSDIQMTQSPASLSVSVGDTITLTCHASQNIDVWLSWFQQKPGNIPKLLIYKASNLHTGVPSRFSGSGSGTGFTLTISSLQPEDIATYYCQQAHSYPFTFGGGTKLEIK
notes: Dual variable domain IgG4: B-B13 VL3 × VH2 outer, 8D4-8 VL1 × VH2 inner, (G4S)2 linkers; heterotetramer of two heavy and two light chains; copies: 2 + 2
Kd [7]: 0.121 nM | koff [7]: 0.000118 s⁻¹ | kon [7]: 974000 M⁻¹ s⁻¹ | Kd (recombinant human IL-4 [8]): 0.148 nM | koff (recombinant human IL-4 [8]): 0.000378 s⁻¹ | kon (recombinant human IL-4 [8]): 2.55e+06 M⁻¹ s⁻¹ | IC50 (nM) in IL-4 assay (TF-1 cell proliferation) (recombinant human IL-4 [9]): 1.7 nM

Second part, the molecule after the results:

Kd (recombinant human IL-13 [2]): 0.563 nM | koff (recombinant human IL-13 [2]): 0.000373 s⁻¹ | kon (recombinant human IL-13 [2]): 864000 M⁻¹ s⁻¹
Molecule: mouse anti-IL-13 monoclonal antibody clone B-B13

IC50, inhibition of IL-4 induced TF-1 cell proliferation (recombinant human IL-4 [5]): 97 pM | Kd (recombinant human IL-4 [6]): 0.0377 nM | koff (recombinant human IL-4 [6]): 0.000217 s⁻¹ | kon (recombinant human IL-4 [6]): 5.57e+06 M⁻¹ s⁻¹
B10: mouse anti-IL-4 monoclonal antibody clone 8D4-8 (antibody, V domains shown)
VH: B7 VH with E10Q, K13R, A16T, Q65K, G66D, E74R, T76S, V93L, L118T
VL: B7 VL with T5N, V15L, K39S
notes: Bought mouse monoclonal antibody (Biozol / BioLegend); also called murine 8D4-8

Kd [7]: 0.211 nM | koff [7]: 0.0002 s⁻¹ | kon [7]: 948000 M⁻¹ s⁻¹ | Kd (recombinant human IL-4 [8]): 0.0347 nM | koff (recombinant human IL-4 [8]): 0.000139 s⁻¹ | kon (recombinant human IL-4 [8]): 4e+06 M⁻¹ s⁻¹ | IC50 (nM) in IL-4 assay (TF-1 cell proliferation) (recombinant human IL-4 [9]): 0.32 nM
B12: huTBTI3_2_1 (bispecific antibody, IgG4)
VH: B11 VH with A181P
VL: B11 VL
notes: Dual variable domain IgG4: B-B13 VL3 × VH2 outer, 8D4-8 VL1 × VH1 inner, (G4S)2 linkers; heterotetramer of two heavy and two light chains; copies: 2 + 2

Kd (recombinant human IL-4 [8]): 0.0332 nM | koff (recombinant human IL-4 [8]): 0.000132 s⁻¹ | kon (recombinant human IL-4 [8]): 3.96e+06 M⁻¹ s⁻¹
B13: huTBTI3_2_2 (bispecific antibody, IgG4)
VH: B11 VH with A181P
VL: B11 VL with Q34N, A96N
notes: Dual variable domain IgG4: B-B13 VL2 × VH2 outer, 8D4-8 VL1 × VH1 inner, (G4S)2 linkers; heterotetramer of two heavy and two light chains; copies: 2 + 2

Kd (recombinant human IL-4 [8]): 0.138 nM | koff (recombinant human IL-4 [8]): 0.000308 s⁻¹ | kon (recombinant human IL-4 [8]): 2.23e+06 M⁻¹ s⁻¹
B14: huTBTI3_1_2 (bispecific antibody, IgG4)
VH: B11 VH
VL: B11 VL with Q34N, A96N
notes: Dual variable domain IgG4: B-B13 VL2 × VH2 outer, 8D4-8 VL1 × VH2 inner, (G4S)2 linkers; heterotetramer of two heavy and two light chains; copies: 2 + 2
